This note sets out measurements from paper PMC2653193, “A Unique Dual Activity Amino Acid Hydroxylase in Toxoplasma gondii” (PLoS ONE, 2009).

Series [1] addresses T1, TgAaaH2 (Toxoplasma gondii, UniProt B2L7T2).
T1 construct: gene AaaH2; N-terminal 23 residues (predicted signal peptide) removed; N-terminal 6xHis tag (pET 45b) kept; E. coli BL21; full-length ORF 565 residues; primer text says begins at residue 23
T1 sequence (B2L7T2 23-565): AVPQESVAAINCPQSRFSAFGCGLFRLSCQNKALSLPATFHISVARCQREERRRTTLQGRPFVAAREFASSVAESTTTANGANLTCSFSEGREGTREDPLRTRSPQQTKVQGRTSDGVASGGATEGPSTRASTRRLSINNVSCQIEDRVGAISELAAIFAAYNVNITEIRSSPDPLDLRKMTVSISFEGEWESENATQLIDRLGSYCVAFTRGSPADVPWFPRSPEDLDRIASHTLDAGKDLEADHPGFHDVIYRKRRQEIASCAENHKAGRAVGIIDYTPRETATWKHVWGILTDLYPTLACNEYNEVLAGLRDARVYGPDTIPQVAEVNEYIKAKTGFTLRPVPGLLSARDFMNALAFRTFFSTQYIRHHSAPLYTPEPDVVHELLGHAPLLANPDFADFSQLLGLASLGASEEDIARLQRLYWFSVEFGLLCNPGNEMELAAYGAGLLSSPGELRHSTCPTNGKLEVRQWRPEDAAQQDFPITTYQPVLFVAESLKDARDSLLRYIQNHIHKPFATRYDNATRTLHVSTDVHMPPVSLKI
Put plainly: coupled dihydropteridine reductase assay, NADH oxidation at […] nm. Format: biochemical. As to conditions: 50 µM amino acid (tyrosine in Figure 4B), 0-500 µM 6-MPH4, 500 µM NADH, 10 µM ferrous ammonium sulphate, 50 mM HEPES, pH 7.5, 32°C; range printed jointly for both enzymes, not assigned.

The target of series [2] is T2, TgAaaH1 (Toxoplasma gondii, UniProt B2L7T1).
T2 construct: gene AaaH1; N-terminal 23 residues (predicted signal peptide) removed; N-terminal 6xHis tag (pET 45b) kept; E. coli BL21; full-length ORF 565 residues; primer text says begins at residue 23
T2 sequence (B2L7T1 23-565): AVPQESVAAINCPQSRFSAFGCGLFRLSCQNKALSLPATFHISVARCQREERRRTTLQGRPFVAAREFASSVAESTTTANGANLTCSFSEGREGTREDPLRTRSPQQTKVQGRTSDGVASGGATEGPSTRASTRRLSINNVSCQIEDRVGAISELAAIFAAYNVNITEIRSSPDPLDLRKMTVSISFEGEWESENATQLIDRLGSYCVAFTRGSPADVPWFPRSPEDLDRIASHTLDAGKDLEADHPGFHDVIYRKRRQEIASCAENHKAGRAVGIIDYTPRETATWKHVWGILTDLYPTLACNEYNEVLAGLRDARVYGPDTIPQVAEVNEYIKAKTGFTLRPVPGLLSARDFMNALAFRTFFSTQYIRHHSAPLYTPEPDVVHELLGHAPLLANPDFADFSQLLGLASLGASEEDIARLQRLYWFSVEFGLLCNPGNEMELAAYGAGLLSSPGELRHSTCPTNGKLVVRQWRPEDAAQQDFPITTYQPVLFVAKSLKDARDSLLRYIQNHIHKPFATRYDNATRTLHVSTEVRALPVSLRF
Described as above. In kind it is biochemical. As to conditions: 50 µM amino acid (tyrosine in Figure 4B), 0-500 µM 6-MPH4, 500 µM NADH, 10 µM ferrous ammonium sulphate, 50 mM HEPES, pH 7.5, 32°C; range printed jointly for both enzymes, not assigned.

Substrate in series [3]: N[C@@H](Cc1ccc(O)cc1)C(=O)O
Kind of series: purified protein. As to conditions: 500 µM 6-MPH4, 500 µM NADH, 10 µM ferrous ammonium sulphate, 50 mM HEPES, pH 7.5, 32°C, 0-200 µM tyrosine, substrate inhibition at high concentration. Format: biochemical, Toxoplasma gondii.

Substrate in series [4]: N[C@@H](Cc1ccccc1)C(=O)O
Kind of series: purified protein. In kind it is biochemical, Toxoplasma gondii. As to conditions: 500 µM 6-MPH4, 500 µM NADH, 10 µM ferrous ammonium sulphate, 50 mM HEPES, pH 7.5, 32°C, 0-200 µM phenylalanine, substrate inhibition at high concentration.

The term Km denotes the substrate concentration at which the rate is half of its maximum. Consider `CC1CNc2nc(N)[nH]c(=O)c2N1` (stereo not shown) [6-MPH4], for which the Michaelis constant (Km) in series [1] and in series [2] was 310 to 318 µM in each case.

B1: TgAaaH1 (Toxoplasma gondii) (protein)
chain: AVPQESVAAINCPQSRFSAFGCGLFRLSCQNKALSLPATFHISVARCQREERRRTTLQGRPFVAAREFASSVAESTTTANGANLTCSFSEGREGTREDPLRTRSPQQTKVQGRTSDGVASGGATEGPSTRASTRRLSINNVSCQIEDRVGAISELAAIFAAYNVNITEIRSSPDPLDLRKMTVSISFEGEWESENATQLIDRLGSYCVAFTRGSPADVPWFPRSPEDLDRIASHTLDAGKDLEADHPGFHDVIYRKRRQEIASCAENHKAGRAVGIIDYTPRETATWKHVWGILTDLYPTLACNEYNEVLAGLRDARVYGPDTIPQVAEVNEYIKAKTGFTLRPVPGLLSARDFMNALAFRTFFSTQYIRHHSAPLYTPEPDVVHELLGHAPLLANPDFADFSQLLGLASLGASEEDIARLQRLYWFSVEFGLLCNPGNEMELAAYGAGLLSSPGELRHSTCPTNGKLVVRQWRPEDAAQQDFPITTYQPVLFVAKSLKDARDSLLRYIQNHIHKPFATRYDNATRTLHVSTEVRALPVSLRF
notes: N-terminal 23 residues (predicted signal peptide) removed; N-terminal 6xHis tag (pET 45b) kept; E. coli BL21; full-length ORF 565 residues; primer text says begins at residue 23
Broadly, the Vmax is the rate approached at saturating substrate. Turning to B1, in series [3], the Km is 1.25 ± 0.69 µM and the Vmax turned out to be 0.137 ± 0.014 µmol/min/mg. For the same molecule, in series [4], the Km came to 2.45 ± 1.87 µM and the Vmax came to 0.125 ± 0.015 µmol/min/mg.

B2: TgAaaH2 (Toxoplasma gondii) (protein)
chain: AVPQESVAAINCPQSRFSAFGCGLFRLSCQNKALSLPATFHISVARCQREERRRTTLQGRPFVAAREFASSVAESTTTANGANLTCSFSEGREGTREDPLRTRSPQQTKVQGRTSDGVASGGATEGPSTRASTRRLSINNVSCQIEDRVGAISELAAIFAAYNVNITEIRSSPDPLDLRKMTVSISFEGEWESENATQLIDRLGSYCVAFTRGSPADVPWFPRSPEDLDRIASHTLDAGKDLEADHPGFHDVIYRKRRQEIASCAENHKAGRAVGIIDYTPRETATWKHVWGILTDLYPTLACNEYNEVLAGLRDARVYGPDTIPQVAEVNEYIKAKTGFTLRPVPGLLSARDFMNALAFRTFFSTQYIRHHSAPLYTPEPDVVHELLGHAPLLANPDFADFSQLLGLASLGASEEDIARLQRLYWFSVEFGLLCNPGNEMELAAYGAGLLSSPGELRHSTCPTNGKLEVRQWRPEDAAQQDFPITTYQPVLFVAESLKDARDSLLRYIQNHIHKPFATRYDNATRTLHVSTDVHMPPVSLKI
notes: as for B1
In the case of B2, the Km in series [3] is 5.50 ± 3.26 µM; in series [4], 14.8 ± 6.4 µM. In addition, the Vmax in series [3] was determined as 0.123 ± 0.001 µmol/min/mg; in series [4], 0.145 ± 0.037 µmol/min/mg.
